Experimental data reported in patent US20070020327A1.
Read-outs that look alike come from different tables or passages of the source. One block for each binder: values may come before it.

Experiments:
HLA-A*0206 (human) = assay: competition with 125I-labelled standard peptide for purified HLA, gel filtration
HLA-A*0201 (human) [1] = assay: as above; settings: for binding affinity ratio: scale: ratio
HLA-A*0203 (human) = assay: as above; settings: for binding affinity ratio: scale: ratio
HLA-A*0202 (human) = assay: as above
HLA-A*0301 (human) = assay: as above
HLA-A*0201 (human) [2] = assay: competition binding to purified HLA, 125I-labelled standard peptide, gel filtration; ratio = IC50 standard / IC50 test peptide
[3] = molecular target: HLA-A*0201 (purified HLA class I molecule) (human); assay: competition with 125I-labelled standard peptide for purified HLA, gel filtration
HLA-A*0201 (human) [4] = assay: competition with 125I-labelled standard peptide for purified HLA, gel filtration; ratio = IC50 standard / IC50 test peptide
[5] = remark: other sources report otherwise

Binder: YASGWGSI (modifications not checked) [Kallikrein 153 peptide YASGWGSI]
binding affinity ratio (IC50 of the standard peptide / IC50 of the test peptide) (HLA-A*0206 (human)): 0.0003
binding affinity ratio (IC50 of the standard peptide / IC50 of the test peptide) (HLA-A*0201 (human) [1]): -0.0001
binding affinity ratio (IC50 of the standard peptide / IC50 of the test peptide) (HLA-A*0203 (human)): 0.0003
binding affinity ratio (IC50 of the standard peptide / IC50 of the test peptide) (HLA-A*0202 (human)): 0.0009

Binder: YASGWGSI (modifications not checked) [PSA 149 peptide YASGWGSI]
binding affinity ratio (IC50 of the standard peptide / IC50 of the test peptide) (HLA-A*0206 (human)): 0.0003
binding affinity ratio (IC50 of the standard peptide / IC50 of the test peptide) (HLA-A*0201 (human) [1]): -0.0001
binding affinity ratio (IC50 of the standard peptide / IC50 of the test peptide) (HLA-A*0203 (human)): 0.0003
binding affinity ratio (IC50 of the standard peptide / IC50 of the test peptide) (HLA-A*0202 (human)): 0.0009

Binder: YTKVVHYRKWI (modifications not checked) [Kallikrein 243 peptide …]
binding affinity ratio (IC50 of the standard peptide / IC50 of the test peptide) (HLA-A*0206 (human)): -0.0001
binding affinity ratio (IC50 of the standard peptide / IC50 of the test peptide) (HLA-A*0201 (human) [1]): 0.0001
binding affinity ratio (IC50 of the standard peptide / IC50 of the test peptide) (HLA-A*0202 (human)): -0.0001

Binder: YTKVVHYRKWI (modifications not checked) [PSA 239 peptide …]
binding affinity ratio (IC50 of the standard peptide / IC50 of the test peptide) (HLA-A*0206 (human)): -0.0001
binding affinity ratio (IC50 of the standard peptide / IC50 of the test peptide) (HLA-A*0201 (human) [1]): 0.0001
binding affinity ratio (IC50 of the standard peptide / IC50 of the test peptide) (HLA-A*0202 (human)): -0.0001

Binder: LGEYIRKRY (modifications not checked)
binding affinity ratio (IC50 of standard peptide / IC50 of test peptide) (HLA-A*0301 (human); [5]): 0.0002

Binder: LGEYIRKRYR (modifications not checked)
binding affinity ratio (IC50 of standard peptide / IC50 of test peptide) (HLA-A*0301 (human)): 0.0003

Binder: DLPTQEPA (modifications not checked) [DLPTQEPA (PSA, position 136, 8 amino acids)]
binding affinity ratio (HLA-A*0201 (human) [2]): 0.0001

Binder: LVHPQWVL (modifications not checked) [Kallikrein (hK2) peptide LVHPQWVL (position 54, 8 amino acids)]
binding affinity ratio (IC50 of standard peptide / IC50 of test peptide) [3]: 0.0001

Binder: LVHPQWVL (modifications not checked) [PSA peptide LVHPQWVL (position 50, 8 amino acids)]
binding affinity ratio (IC50 of standard peptide / IC50 of test peptide) [3]: 0.0001

Binder: LVHPQWVLT (modifications not checked) [Kallikrein (hK2) peptide … (position 54, 9 amino acids)]
binding affinity ratio (IC50 of standard peptide / IC50 of test peptide) [3]: 0.0001

Binder: LVHPQWVLT (modifications not checked) [PSA peptide … (position 50, 9 amino acids)]
binding affinity ratio (IC50 of standard peptide / IC50 of test peptide) [3]: 0.0001

Binder: LVHPQWVLTA (modifications not checked) [Kallikrein (hK2) peptide … (position 54, 10 amino acids)]
binding affinity ratio (IC50 of standard peptide / IC50 of test peptide) [3]: 0.0001

Binder: LVHPQWVLTAA (modifications not checked) [Kallikrein (hK2) peptide … (position 54, 11 amino acids)]
binding affinity ratio (IC50 of standard peptide / IC50 of test peptide) [3]: 0.0001

Binder: LVLSIALSV (modifications not checked) [Kallikrein (hK2) peptide … (position 4, 9 amino acids)]
binding affinity ratio (IC50 of standard peptide / IC50 of test peptide) [3, 5]: 0.002

Binder: MALDVYNGLL (modifications not checked) [PAP peptide … (position 298, 10 amino acids)]
binding affinity ratio (IC50 of standard peptide / IC50 of test peptide) [3]: 0.001

Binder: MTKLRELSEL (modifications not checked) [PAP peptide … (position 232, 10 amino acids)]
binding affinity ratio (IC50 of standard peptide / IC50 of test peptide) [3]: 0.0002

Binder: NMSLLKHQSL (modifications not checked) [Kallikrein 102 …]
binding affinity ratio (IC50 of standard peptide / IC50 of test peptide) (HLA-A*0203 (human); [5]): 0.04

Binder: PAKITDVVKV (modifications not checked)
binding affinity ratio (IC50 of standard peptide / IC50 of test peptide) (HLA-A*0206 (human); [5]): 0.0006
binding affinity ratio (IC50 of standard peptide / IC50 of test peptide) (HLA-A*0202 (human); [5]): 0.01

Binder: PAKITDVVKVL (modifications not checked)
binding affinity ratio (IC50 of standard peptide / IC50 of test peptide) (HLA-A*0206 (human)): -0.0001
binding affinity ratio (IC50 of standard peptide / IC50 of test peptide) (HLA-A*0201 (human) [1]): 0.0002
binding affinity ratio (IC50 of standard peptide / IC50 of test peptide) (HLA-A*0203 (human)): 0.0017
binding affinity ratio (IC50 of standard peptide / IC50 of test peptide) (HLA-A*0202 (human)): 0.0006

Binder: PTQEPALGT (modifications not checked) [Kallikrein (hK2) peptide …, position 142, 9 amino acids]
binding affinity ratio (ratio to standard peptide) (HLA-A*0201 (human) [4]): 0.0001

Binder: QIPSYKKLI (modifications not checked) [PAP peptide …, position 276, 9 amino acids]
binding affinity ratio (ratio to standard peptide) (HLA-A*0201 (human) [4]): 0.0002

Binder: QLGMEQHYEL (modifications not checked) [PAP peptide …, position 72, 10 amino acids]
binding affinity ratio (ratio to standard peptide) (HLA-A*0201 (human) [4]): 0.0003

Binder: QMALDVYNGL (modifications not checked) [PAP peptide …, position 297, 10 amino acids]
binding affinity ratio (ratio to standard peptide) (HLA-A*0201 (human) [4]): 0.0002

Binder: QVWLGRHNL (modifications not checked) [Kallikrein (hK2) peptide …, position 72, 9 amino acids]
binding affinity ratio (ratio to standard peptide) (HLA-A*0201 (human) [4]): 0.0001

Binder: QVYIRSTDV (modifications not checked) [PAP peptide …, position 101, 9 amino acids]
binding affinity ratio (ratio to standard peptide) (HLA-A*0201 (human) [4]): 0.0002

The remaining lines, values ahead:

binding affinity ratio (IC50 of standard peptide / IC50 of test peptide) (HLA-A*0301 (human)): 0.0003
Binder: FSERLQDFDK (modifications not checked) [… (PSM, position 646, 10 amino acids)]

binding affinity ratio (IC50 of standard peptide / IC50 of test peptide) (HLA-A*0301 (human)): 0.4
Binder: KSLYESWTK (modifications not checked) [… (PSM, position 491)]

binding affinity ratio (IC50 of standard peptide / IC50 of test peptide) (HLA-A*0301 (human)): 0.007
Binder: MSLLKNRFLR (modifications not checked) [… (PSA, position 99)]

binding affinity ratio (IC50 of standard peptide / IC50 of test peptide) (HLA-A*0301 (human)): 0.0006
Binder: LGIASGRAR (modifications not checked) [PSM 528 peptide …]

binding affinity ratio (HLA-A*0201 (human) [2]): 0.0001
Binder: DAVKVMDLPT (modifications not checked) [… (PSA, position 130, 10 amino acids)]

binding affinity ratio (HLA-A*0201 (human) [2]): 0.0002
Binder: DLFGIWSKV (modifications not checked) [… (PAP, position 201, 9 amino acids)]

binding affinity ratio (HLA-A*0201 (human) [2]): 0.0003
Binder: DLHVISNDV (modifications not checked) [… (PSA, position 171, 9 amino acids)]

binding affinity ratio (HLA-A*0201 (human) [2]): 0.0001
Binder: DLHVISNDVCA (modifications not checked) [… (PSA, position 171, 11 amino acids)]

IC50 (HLA-A*0206 (human)): 57 nM
IC50 (HLA-A*0201 (human) [1]): 26 nM
IC50 (HLA-A*0203 (human)): 5 nM
IC50 (HLA-A*0202 (human)): 0.4 nM
Binder: VLAGGFFLV (modifications not checked) [peptide 1389.20 (PSM.27.V9)]

IC50 (HLA-A*0206 (human)): 7.6 nM
IC50 (HLA-A*0203 (human)): 1.7 nM
IC50 (HLA-A*0202 (human)): 0.8 nM
Binder: MMNDQLMFL (modifications not checked) [peptide 1126.01 (PSM.663)]

IC50 (HLA-A*0206 (human)): 65 nM
IC50 (HLA-A*0201 (human) [1]): 6.8 nM
IC50 (HLA-A*0203 (human)): 18 nM
IC50 (HLA-A*0202 (human)): 3 nM
Binder: FLTLSVTWIGV (modifications not checked) [peptide 1419.27 (PSA.3.V11)]

IC50 (HLA-A*0203 (human); [5]): 9.5 nM
Binder: KLQCVDLHVV (modifications not checked) [peptide 1419.24 (PSA.166.V10)]

binding affinity ratio (HLA-A*0201 (human) [1]): 0.0001
binding affinity ratio (HLA-A*0203 (human)): 0.0009
Binder: KVLGLPTQEPA (modifications not checked) [… (Kallikrein, position 137, 11 amino acids)]

binding affinity ratio (IC50 of standard peptide / IC50 of test peptide) [3]: 0.0001
Binder: LVHNLTKEL (modifications not checked) [PSM peptide … (position 473, 9 amino acids)]

binding affinity ratio (IC50 of standard peptide / IC50 of test peptide) [3]: 0.0001
Binder: LVHPQWVLTA (modifications not checked) [PSA peptide … (position 50, 10 amino acids)]

binding affinity ratio (IC50 of standard peptide / IC50 of test peptide) [3]: 0.0001
Binder: LVHPQWVLTAA (modifications not checked) [PSA peptide … (position 50, 11 amino acids)]

binding affinity ratio (IC50 of standard peptide / IC50 of test peptide) [3]: 0.14
Binder: MLLRLSEPAEL (modifications not checked) [PSA peptide … (position 118, 11 amino acids)]

binding affinity ratio (IC50 of standard peptide / IC50 of test peptide) [3]: 0.0002
Binder: NAQLAGAKGV (modifications not checked) [PSM peptide … (position 216, 10 amino acids)]

binding affinity ratio (IC50 of standard peptide / IC50 of test peptide) [3]: 0.0001
Binder: NLLHETDSA (modifications not checked) [PSM peptide … (position 3, 9 amino acids)]

binding affinity ratio (IC50 of standard peptide / IC50 of test peptide) [3]: 0.0002
Binder: NLNGAGDPLT (modifications not checked) [PSM peptide … (position 260, 10 amino acids)]

binding affinity ratio (ratio to standard peptide) (HLA-A*0201 (human) [4]): 0.0001
Binder: PTQEPALGT (modifications not checked) [PSA peptide …, position 138, 9 amino acids]

binding affinity ratio (ratio to standard peptide) (HLA-A*0201 (human) [4]): 0.0006
Binder: QAAAETLSEV (modifications not checked) [PSM peptide …, position 740, 10 amino acids]

binding affinity ratio (ratio to standard peptide) (HLA-A*0201 (human) [4]): 0.0001
Binder: QLAGAKGVI (modifications not checked) [PSM peptide …, position 218, 9 amino acids]

binding affinity ratio (ratio to standard peptide) (HLA-A*0201 (human) [4]): 0.0006
Binder: QLAGAKGVIL (modifications not checked) [PSM peptide …, position 218, 10 amino acids]

binding affinity ratio (ratio to standard peptide) (HLA-A*0201 (human) [4]): 0.0001
Binder: QVHPQKVTKFM (modifications not checked) [PSA peptide …, position 182, 11 amino acids]

binding affinity ratio (ratio to standard peptide) (HLA-A*0201 (human) [4]): 0.0001
Binder: QVLVASRGRA (modifications not checked) [PSA peptide …, position 35, 10 amino acids]

binding affinity ratio (ratio to standard peptide) (HLA-A*0201 (human) [4]): 0.0001
Binder: QVLVASRGRAV (modifications not checked) [PSA peptide …, position 35, 11 amino acids]

binding affinity ratio (ratio to standard peptide) (HLA-A*0201 (human) [4]): 0.0001
Binder: QVRGGMVFEL (modifications not checked) [PSM peptide …, position 578, 10 amino acids]

binding affinity ratio (ratio to standard peptide) (HLA-A*0201 (human) [4]): 0.0001
Binder: QVSHSFPHPL (modifications not checked) [PSA peptide …, position 87, 10 amino acids]

binding affinity ratio (HLA-A*0206 (human); remark: other sources report otherwise, scale: ratio): 0.0002
binding affinity ratio (HLA-A*0201 (human) [1]; [5]): 0.0005
binding affinity ratio (HLA-A*0203 (human); [5]): 0.0092
Binder: STCSGDSGGPL (modifications not checked) [PSA peptide … (position 203, 11 amino acids)]
